± gives the standard deviation of the averaged measurements.
Experiments:
MCF7 = assay: percentage of EdU-negative (G0-arrested) nuclei per well, 72 h; higher = more G0 arrest; conditions: reference: sequence is the full UniProt precursor, the tested protein was the secreted form or ectodomain
hTERT-HMEC = assay: as above; conditions: reference: sequence is the full UniProt precursor, the tested protein was the secreted form or ectodomain
[1] = protein concentration 0.0225 µM
[2] = protein concentration 0.0174286 µM
[3] = protein concentration 0.174286 µM
[4] = protein concentration 0.0072075 µM
[5] = protein concentration 0.072075 µM
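Further: secreted proteins added to cultured cells, EdU pulse at the end, nuclei found by Hoechst imaging, EdU status from nuclear versus surrounding ring intensity ratio, PBS as neutral control.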

Question: What does the source list for “MARRRRRACIALFLVLLFAFGTLMGLRTLKAPDGLPALGPGLELAPFERRPEGAPAPAARAPAAPAAPPPPPPPPRTADPGGSPGPAPAEAEPAPVQSLRVYSDLHAFYYSWYGSPRREGHYIHWDHVMVPHWDPKISASYPRGRHSPPDDLGSSFYPELGPYSSRDPEVLREHMTQLKEAAIGVLVLSWYPPGMADDNGEPSDDLVPAILDTAHQYSIQVAFHIQPYKGRDDITVHDNIKYIIDTYGSHGAFYRYKNSMGKSLPLFYIYDSYLTSPEAWAHLLTPNGPHSIRNTPYDGVFIALLVEEGHTHDILAAGFDGMYTYFASNGFSFGSSHQNWKAVKNFCDANNLMFIPSVGPGYIDTSIRPWNNHNTRNRVNGKYYETALQAALTVRPEIVSITSFNEWHEGTQIEKAIPKKTPTRLYLDYLPHQPSLYLELTRRWAEHFIKEKEQWLM [Q5VSG8]”?
Answer: percentage of EdU-negative (MCF7; [1]): 25.6 ± 0.44%; percentage of EdU-negative (MCF7; protein concentration 0.225 µM): 28.3 ± 2.4%; percentage of EdU-negative (hTERT-HMEC; [1]): 4.99 ± 0.62%; percentage of EdU-negative (hTERT-HMEC; protein concentration 0.225 µM): 9.23 ± 0.73%

Question: With “MLLLINVILTLWVSCANGQEVKPCDFPEIQHGGLYYKSLRRLYFPAAAGQSYSYYCDQNFVTPSGSYWDYIHCTQDGWSPTVPCLRTCSKSDVEIENGFISESSSIYILNEETQYNCKPGYATAEGNSSGSITCLQNGWSTQPICIKFCDMPVFENSRAKSNGMWFKLHDTLDYECYDGYESSYGNTTDSIVCGEDGWSHLPTCYNSSENCGPPPPISNGDTTSFPQKVYLPWSRVEYQCQSYYELQGSKYVTCSNGDWSEPPRCISMKPCEFPEIQHGHLYYENTRRPYFPVATGQSYSYYCDQNFVTPSGSYWDYIHCTQDGWLPTVPCLRTCSKSDIEIENGFISESSSIYILNKEIQYKCKPGYATADGNSSGSITCLQNGWSAQPICIKFCDMPVFENSRAKSNGMRFKLHDTLDYECYDGYEISYGNTTGSIVCGEDGWSHFPTCYNSSEKCGPPPPISNGDTTSFLLKVYVPQSRVEYQCQSYYELQGSNYVTCSNGEWSEPPRCIHPCIITEENMNKNNIQLKGKSDIKYYAKTGDTIEFMCKLGYNANTSVLSFQAVCREGIVEYPRCE” as the sequence, how does the “percentage of EdU-negative” value (MCF7; [1]) read?
Answer: 24.7 ± 2.6%

Question: What about the “percentage of EdU-negative” value (MCF7; protein concentration 0.225 µM) of the same sequence?
Answer: 28.7 ± 0.4%

Question: And the “percentage of EdU-negative” value (hTERT-HMEC; [1])?
Answer: 4.84 ± 0.38%

Question: What about the “percentage of EdU-negative” value (hTERT-HMEC; protein concentration 0.225 µM) of the same sequence?
Answer: 4.68 ± 0.36%

Question: For “MGWLPLLLLLTQCLGVPGQRSPLNDFQVLRGTELQHLLHAVVPGPWQEDVADAEECAGRCGPLMDCRAFHYNVSSHGCQLLPWTQHSPHTRLRRSGRCDLFQKKDYVRTCIMNNGVGYRGTMATTVGGLPCQAWSHKFPNDHKYTPTLRNGLEENFCRNPDGDPGGPWCYTTDPAVRFQSCGIKSCREAACVWCNGEEYRGAVDRTESGRECQRWDLQHPHQHPFEPGKFLDQGLDDNYCRNPDGSERPWCYTTDPQIEREFCDLPRCGSEAQPRQEATTVSCFRGKGEGYRGTANTTTAGVPCQRWDAQIPHQHRFTPEKYACKDLRENFCRNPDGSEAPWCFTLRPGMRAAFCYQIRRCTDDVRPQDCYHGAGEQYRGTVSKTRKGVQCQRWSAETPHKPQFTFTSEPHAQLEENFCRNPDGDSHGPWCYTMDPRTPFDYCALRRCADDQPPSILDPPDQVQFEKCGKRVDRLDQRRSKLRVVGGHPGNSPWTVSLRNRQGQHFCGGSLVKEQWILTARQCFSSCHMPLTGYEVWLGTLFQNPQHGEPSLQRVPVAKMVCGPSGSQLVLLKLERSVTLNQRVALICLPPEWYVVPPGTKCEIAGWGETKGTGNDTVLNVALLNVISNQECNIKHRGRVRESEMCTEGLLAPVGACEGDYGGPLACFTHNCWVLEGIIIPNRVCARSRWPAVFTRVSVFVDWIHKVMRLG [G3XAK1]”, which “percentage of EdU-negative” value (MCF7; [2]) is on record?
Answer: 22.6 ± 1.9%

Question: What about the “percentage of EdU-negative” value (MCF7; [3]) of the same sequence?
Answer: 27.79 ± 0.11%

Question: What about the “percentage of EdU-negative” value (hTERT-HMEC; [2]) of the same sequence?
Answer: 4.79 ± 0.57%

Question: And the “percentage of EdU-negative” value (hTERT-HMEC; [3])?
Answer: 5.55 ± 0.076%

Question: Which “percentage of EdU-negative” value (MCF7; [4]) does the source give for “MGKPWLRALQLLLLLGASWARAGAPRCTYTFVLPPQKFTGAVCWSGPASTRATPEAANASELAALRMRVGRHEELLRELQRLAAADGAVAGEVRALRKESRGLSARLGQLRAQLQHEAGPGAGPGADLGAEPAAALALLGERVLNASAEAQRAAARFHQLDVKFRELAQLVTQQSSLIARLERLCPGGAGGQQQVLPPPPLVPVVPVRLVGSTSDTSRMLDPAPEPQRDQTQRQQEPMASPMPAGHPAVPTKPVGPWQDCAEARQAGHEQSGVYELRVGRHVVSVWCEQQLEGGGWTVIQRRQDGSVNFFTTWQHYKAGFGRPDGEYWLGLEPVYQLTSRGDHELLVLLEDWGGRGARAHYDGFSLEPESDHYRLRLGQYHGDAGDSLSWHNDKPFSTVDRDRDSYSGNCALYQRGGWWYHACAHSNLNGVWHHGGHYRSRYQDGVYWAEFRGGAYSLRKAAMLIRPLKL [Q8NI99]” here?
Answer: 23.9 ± 1.3%

Question: What about the “percentage of EdU-negative” value (MCF7; [5]) of the same sequence?
Answer: 25.7 ± 0.84%

Question: And the “percentage of EdU-negative” value (hTERT-HMEC; [4])?
Answer: 4.22 ± 0.45%

Question: What about the “percentage of EdU-negative” value (hTERT-HMEC; [5]) of the same sequence?
Answer: 5.15 ± 0.94%

Question: What does the source list for “MARLALSPVPSHWMVALLLLLSAEPVPAARSEDRYRNPKGSACSRIWQSPRFIARKRGFTVKMHCYMNSASGNVSWLWKQEMDENPQQLKLEKGRMEESQNESLATLTIQGIRFEDNGIYFCQQKCNNTSEVYQGCGTELRVMGFSTLAQLKQRNTLKDGIIMIQTLLIILFIIVPIFLLLDKDDSKAGMEEDHTYEGLDIDQTATYEDIVTLRTGEVKWSVGEHPGQE”?
Answer: percentage of EdU-negative (MCF7; [1]): 25.5 ± 0.14%; percentage of EdU-negative (MCF7; protein concentration 0.225 µM): 26.8 ± 0.87%; percentage of EdU-negative (hTERT-HMEC; [1]): 5.71 ± 0.54%; percentage of EdU-negative (hTERT-HMEC; protein concentration 0.225 µM): 8.95 ± 0.22%

Question: What does the source list for “MRNSYRFLASSLSVVVSLLLIPEDVCEKIIGGNEVTPHSRPYMVLLSLDRKTICAGALIAKDWVLTAAHCNLNKRSQVILGAHSITREEPTKQIMLVKKEFPYPCYDPATREGDLKLLQLMEKAKINKYVTILHLPKKGDDVKPGTMCQVAGWGRTHNSASWSDTLREVNITIIDRKVCNDRNHYNFNPVIGMNMVCAGSLRGGRDSCNGDSGSPLLCEGVFRGVTSFGLENKCGDPRGPGVYILLSKKHLNWIIMTIKGAV”?
Answer: percentage of EdU-negative (MCF7; [1]): 27.7 ± 2.1%; percentage of EdU-negative (MCF7; protein concentration 0.225 µM): 30.8 ± 3.2%; percentage of EdU-negative (hTERT-HMEC; [1]): 5.3 ± 0.55%; percentage of EdU-negative (hTERT-HMEC; protein concentration 0.225 µM): 5.96 ± 1.8%

Reference: the supplement of paper PMC11316812
